This note sets out measurements from the nanobody polyreactivity screen of Harvey et al. (2022).

This series can be described thus: yeast display, Sf9 membrane polyspecificity reagent, FACS + sequencing; frameworks hold sequencing errors. The essentials: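 Synthetic nanobody libraries on Saccharomyces cerevisiae BJ5465 were galactose-induced for 36–48 hours, stained 1 hour at 4 °C with 10% biotinylated, detergent-solubilized Sf9 membrane reagent and enriched on streptavidin microbeads. FACS then separated cells into low and high (top ~1%) gates by anti-HA (expression) and streptavidin (reagent binding) fluorescence. Genes were colony-PCR amplified, MiSeq 2 × 250 sequenced and CDR-length filtered. A clone's polyreactivity label is that of its gate of origin.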
As for “QVQLVESGGGLVHAGGSLRLSCAASGGIFAGNVMGWDRQAPGKERYLVAAIDGDGRTYYADSVKGRFTISRDNAKNTVYLQMYSQKPEDTAVYYCAADAGVRGQYDDIDEGNYWGLGTQVTVSS”, the “polyreactivity (PSR sort gate)” value is on record as “low polyreactivity”. The entry for “QVQLVESGGGLVHAGGSLRLSCAASGGTFDVNAMGWYRQAPGKERELVATISGGGSTNYADSVNGRFTISRDNAKNSVYLQINSLKPEDTAVYYCAAESEPIRNRERDYWGQGTQVSVSS” is “low polyreactivity”. The same measure for “QVQLVESGGGLVHAGGSLRLSCAASGGTFGYYAMGWYRQAPGQERDLVAAISGSGGSTYYADSVKGRYTISRDHAKNTFYFQMNSLKPEDTAVYYCNAYIFGEVPNNYYWGQGTQVTVSS”: “high polyreactivity”.

Regarding “QVQLVESGGGLVHAGGSLRLSCAASGIILSDNSMGWYRQAPGKEREVVAAITGSGGSTYYADSVKGRFTISRDNAKNTVYLQMNSLKPEDTAVYYCAADGPYGYYYGHYGYWGQGTQVTVSS”, the “polyreactivity (PSR sort gate)” value is recorded as “low polyreactivity”.

With “QVQLVESGGGLVHAGGSLRLSCAASGITLVRYAMGWYRQAPGKERELVAAISSSGGSTYYADSVKGRFTISRDNAKNTVYLQMNSLKPEDTAVYYCNAYVHSRRVEFNYWGQGTQVTVSS”, the “polyreactivity (PSR sort gate)” value is listed as “high polyreactivity”. The entry for “QVQLVESGGGLVHAGGSLRLSCAASGITSSQNAMGWYRQAPGKERELVAAISWRGGSTYYADSVKGRFTISRDNAKNNVYLQMNSLKAEDTAVYYCNVVKRSLRYDYWGQCTQVTVSS” is “high polyreactivity”; for “QVQLVESGGGLVHAGGSLRLSCAASGITYQAYAMGWYRQAPGKEREMVAAINDSGSSTYYADSVKGRFTISRDNAKNTVYLQMNSLKPEDTAVYYCAAYLWFWGQGTQVTVSS” it is “low polyreactivity”; for “QVQLVESGGGLVHAGGSLRLSCAASGLIFRGYAMGWYRQAPGKERELVAAISKSGGSTYYADSVKGRFTISRDNAKNTVYLQLNSLKPEDTAVYYCITDYVWKYFLSSQYDYWGQGTQVTVSS” it is “high polyreactivity”.

“QVQLVESGGGLVHAGGSLRLSCAASGLTFYRYAMGWYRQAPGKERELVAAIRSNVVTTYYADSVKGRFTISRDNAKNTVYLQMNSLKPEDTAVYYCAARFGRSAQPGYDYWGQGTQVTVSS”: the “polyreactivity (PSR sort gate)” value is given as “high polyreactivity”. The entry for “QVQLVESGGGLVHAGGSLRLSCAASGNIPPGNAMGWYRQAPGKERELVAAITASDGSTYYADSEKGRFTISRDHDKNTVYLQMNSLKPEDTAVYYCAKEQVYTYYLEYEYWGQGTQVTVSS” is “high polyreactivity”. The same measure for “QVQLVESGGGLVHAGGSLRLSCAASGRIFATNVMGWYRQAPGKETEMVAAISRSGASTYYADSVKGRFTISRDNAKTSVYLQMNSLKPEDTAGYYCADRRFYYGDRYDYWGQGTQVTVSS”: “high polyreactivity”; for “QVQLVESGGGLVHAGGSLRLSCAASGRIFSYYTMGWYRQAPGKERELVAAITASDGDTYYADSVKGRFTISRDNAMNTVYLQMNSLKPEDTAVYYCAADFWYYHTRMDYWGKGTQVTVSS”: “low polyreactivity”; for “QVQLVESGGGLVHAGGSLRLSCAASGRIFVRYAMGWYRQAPGKERELVAAISSSGSSTYYADSVKGRFTISRDNAKNTVYLQMNSLKPEETAVYYCAAASVRYPRYEYWGQGTQVTVSS”: “high polyreactivity”.

On to “QVQLVESGGGLVHAGGSLRLSCAASGRTFKKYAMGLYRQAPGKERELVAAISWSGGTTYYADSVKGRFTISRDNAKNTVYLQMNSLKPEDTAVYYCAARVSRTGDGYYYYWGQGTQVTVSS”, for which the “polyreactivity (PSR sort gate)” value is “high polyreactivity”. As for “QVQLVESGGGLVHAGGSLRLSCAASGRTFKVYAMGWYRQAPGKERELVASISRSGGSTYYSDSVKGRFTISRDIAKNTVFLQRNSLKPEDTAVYYCAADFCFYGSRVWEYDYWGQGTQVTVSS”, the “polyreactivity (PSR sort gate)” value is recorded as “high polyreactivity”. The same measure for “QVQLVESGGGLVHAGGSLRLSCAASGRTFRAYAMGWYRQAPRKERDLVAAISGGGGSTYYADSVKGRFTISRDNAKNTVYLQMNRLKPEYTAVYYCAVKGTQKLAKYNYWGQGTQVTVSS”: “high polyreactivity”; for “QVQLVESGGGLVHAGGSLRLSCAASGSIFAGYAMGRYRQAPGKERELVAAITSGGRTYYADSVKGRFTISRDNAKNTVYLQMNSLKPEDTAVYYCGKRWYTKTGYDYWGQGTQVTVSS”: “high polyreactivity”; for “QVQLVESGGGLVHAGGSLRLSCAASGSIFPPYAMGWYRQAPVKERELVAAITRSGGSTYYADSVKGRFTISRDNAKNTVYLQLNSLIPEDTAVSDCADRYPGGYGYWGQGTQVTVSS”: “high polyreactivity”. The same measure for “QVQLVESGGGLVHAGGSLRLSCAASGSIFTDYAMGWYRQAPGKERELVAVIDIDGSTYYADSVKGRFTISRDNEKNSVYLQMNSLKPEDTAVYYCAAGYTYYSLYGYWGQGTQVTVSS”: “low polyreactivity”. The same measure for “QVQLVESGGGLVHAGGSLRLSCAASGSIFTVNAMGWYRQAPGKERELVAAIDGSSGSTNYADSEKGRFTISRDNAKNTVYLQMNSLKPEDTAVYYCAADWSYEYGYWGQGTQVTVSS”: “low polyreactivity”; for “QVQLVESGGGLVHAGGSLRLSCAASGSIFYHYAMGWYRQAPGKERELVAAITWSGGSTYYADSVKGRFTISRDNAKNTVYLQMNSLKPEDTAVYYCATSSNVEFGYWGQGTQVTVSS”: “low polyreactivity”; for “QVQLVESGGGLVHAGGSLRLSCAASGSIFYRYAKGWYIQAPGKERDLVAAITYSGGRTYYADSVKGRFTISRDNAKNSVYLKMNILKPEDTAVYYCAAEKQSYGSPKGYDYWGQGTQVTVSS”: “low polyreactivity”. “QVQLVESGGGLVHAGGSLRLSCAASGSIFYYYAMGWYRPAPGKERELVAAIYNGGSTYYADSVKGRFTISRDNAKNTVYLEMNSLKPEDTAVYYCNAGYSYWYRDLGYDSWGQGTQVTVSS”: the “polyreactivity (PSR sort gate)” value is given as “low polyreactivity”. In the case of “QVQLVESGGGLVHAGGSLRLSCAASGSIYIFNAMGWYRQAPGKEREFVARIRRDSSTYYADSVKGRFTISRDNAKNTVYLQMNSLKPEDTAVYYCAAKRVYRRVELNSWGQGTQVTVSS”, the “polyreactivity (PSR sort gate)” value is given as “low polyreactivity”. For the sequence “QVQLVESGGGLVHAGGSLRLSCAASGSTFAYNAMGWYRQAPGKERELVDAIDWSDGITYYADSVKGRFTISRDNAKNTVYLQMNSLKPEDTAVYYCAAEDGYTDSRAYGYDYWGQGTQVTVSL”, the “polyreactivity (PSR sort gate)” value is “low polyreactivity”.

As for “QVQLVESGGGLVHAGGSLRLSCAASGSTFDPNAMGWYRQAPGKERELVAAISWSGGSTYYADSVKGRFTISRDNAKNTVYLQMNSQKPEYTAVYYCNAQFYVSYSYTNDYWGQGTQVTVSS”, the “polyreactivity (PSR sort gate)” value is reported as “low polyreactivity”.

As to “QVQLVESGGGLVHAGGSLRLSCAASGSTFGYYAIGWNRQAPGKERELVAVITGSGGSTYYADSVKGRFTISRDYAKNTVYLQMNSLKPEDTAVYYCAARRWNPTYEYWGQGTQVTVSS”, the “polyreactivity (PSR sort gate)” value is recorded as “high polyreactivity”.

On to “QVQLVESGGGLVHAGGSLRLSCAASGSTFHRYAMGWYRQAPGKERELVARINGSGGSTYYADSVKGRFTISRDNAKNSVYLQMNSLIPEDTAVYYCAAELDVYVSIGSRFHFDYWGQGTQVTVSS”, for which the “polyreactivity (PSR sort gate)” value is listed as “low polyreactivity”. The same measure for “QVQLVESGGGLVHAGGSLRLSCAASGSTFIRNAMGWYRQAPGKERELVAAISSSGGRTYYADSVKGRITISRDNAKNTVYVQMNSLKPEDTAVYYCAARYVPPWGRRYYYWGQGTQVTVSS”: “high polyreactivity”; for “QVQLVESGGGLVHAGGSLRLSCAASGSTFPAYAMGWYRQAPGKERELVAGITRGGSTYYADSVKGRFTISRDNAKNTVYLQMNSLKPEDSAVYYCAAYVLPWRGRGQTEYGYWGQGTQVTVSS”: “low polyreactivity”. The entry for “QVQLVESGGGLVHAGGSLRLSCAASGSTFYYNAMGWNRPAPGKETELVARISRSGGSTYADSVKGRFTISRDNAKNTVYLQMNSLKPEDTAVYYCNADAYGTPEFTSYAVRYDYWGQGTQVTVSS” is “low polyreactivity”; for “QVQLVESGGGLVHAGGSLRLSCAASGSTYGGNAMGWYRQAPGKETELVASITRSGGSTYYADSVKGRFTISRDNAKNTVYLQMNSLKPEDTSVYYCAAGKWYRSPWKYDYWGQGTQVTVSS” it is “low polyreactivity”; for “QVQLVESGGGLVHAGGSLRLSCAASGTISAYAMGWYRPAPGKERELVAAISYSGGSTYYADSVKGRFTISRDNAKKTVYLQMNSLKPEDTAVYYCNARARWYYPYKTYYYWGQGTQVTVSS” it is “high polyreactivity”. The same measure for “QVQLVESGGGLVHAGGSLRLSCAASGYTFQWYDMGWYRQAPGKERELVASISWRGGSTYYADSVKGRFTISRDHAKNTVYLQMNSLKPEDTAVYYCAASLWPDYEYDYWGQGTQVTVSS”: “low polyreactivity”. With “QVQLVESGGGLVHAGGSLRLSCAASRFIFYYYALGWYRQAPGKERELVAVITSGGSTNYADSVKGRFTISRDNAKNTVYLQMNSLKPEDTAVYYCAARSRRRDDSWGQGTQVTVSS”, the “polyreactivity (PSR sort gate)” value was “high polyreactivity”. The entry for “QVQLVESGGGLVHAGGSLRLSCAPSGFTLVSYAMGWHRKAPGKEREFDAGITDSGGSTYYADSVKGRYTITRDNAKNTFYLQMNSLKPVDTAVYYCKADFAPWDKQDYPYDYDYWGQGTQVTVSS” is “low polyreactivity”; for “QVQLVESGGGLVHAGGSLRLSCASSGSIFYYYAMGWYRQAPGKERELVASITSSGGTTSYADSVKGRYTISRDNAKNTVYLLMNSLKPEDTAVYYCNAQVYRYRIGYDYWGQCTQVTVSS” it is “low polyreactivity”; for “QVQLVESGGGLVHAGGSLRLSCDASGLIFYGYAMGWYRQAPGKERQLVADITYSGGRTYYADSVKGRFSISRDNAKNTVYFQMHSLKAEDTAVYYCNARHRSHSNSQPGWKYVYWGQGTQVTVSS” it is “low polyreactivity”.

Regarding “QVQLVESGGGLVHAGGSLRLSCSASGSTLRFNAMGWYRQAPGKVREFVATITRRGGSTYYADSEKGRFTISRDNAKNTVYLQMNSLKPEDTAVYYCAADRGGYSVLGGYWGQGTQVTVSS”, the “polyreactivity (PSR sort gate)” value is reported as “high polyreactivity”.

On to “QVQLVESGGGLVHAGGSLRLSCSATRSIFLGNAMGWYRQAPGKERELVAAISRSGGSTYYADSVKGRFTISRDNAKNTVYLQMNSLKPEDTAVYYCAAVVSSRVKQFEYWGQGNQVTVSS”, for which the “polyreactivity (PSR sort gate)” value is on record as “high polyreactivity”. For “QVQLVESGGGLVHAGGSLRVSCAASGIIFDGNAMGWYRQAPGKERELVAAITASGGSTHYADSVKGRFTISRDNAKNTVYLQMNSLKPEDTAVYYCNKRSRTTGDYDYWGQGTQVTVSS”, the “polyreactivity (PSR sort gate)” value is listed as “low polyreactivity”.
